We go through two molecules from publication PMC11076555, “Dishevelled2 activates WGEF via its interaction with a unique internal peptide motif of the GEF” (Communications Biology, 2024).

In test [1] the test system is xWGEF330. The test can be described thus: In vitro guanine nucleotide exchange (GEF) assay, activation of xWGEF330 by Dvl2^PDZ. Format: biochemical, Xenopus laevis. As to conditions: 5 µM xWGEF330, 2 µM Mant-GDP loaded RhoA, 25 °C, triplicates. Here is the method:
Guanine nucleotide exchange assays were carried out using RhoA loaded with fluorescently labelled Mant-GDP[63],[64]. Briefly, 150 μM of RhoA was incubated with 5 Molar excess of fluorescent label, i.e., Mant-GDP in a buffer containing 10 mM Tris pH 8, 150 mM NaCl, 2 mM DTT, 5 mM EDTA, 0.5 mM MgCl2 and 5% Glycerol. The reaction was incubated on ice for 30 min, followed by the addition of 10 mM MgCl2 to stop the reaction. Excess Mant-GDP was removed through buffer exchange and Mant-GDP loaded RhoA was concentrated and stored at −80 °C. For assays, 2 μM of Mant-GDP loaded RhoA was incubated with 5 μM of xWGEF in the presence or absence of hDvl2^PDZ (0 μM, 25 μM and 50 μM) for 30 min at 25 °C. […] Once the fluorescence was stable, excess GTP (10x of labelled GTPase) was added to start the exchange reaction. […] A decrease in fluorescence was recorded using a BioTek Cytation5 plate reader with excitation and emission of 360 and 440 nm, respectively. Fluorescence was normalized and decrease was fitted using a single exponential decay mode in GraphPad Prism. […]
Guanine nucleotide exchange assays were performed in triplicates. Fluorescence decrease was fitted using a single exponential decay mode in GraphPad Prism. […]

The target in test [2] is T1, Dvl2^PDZ (PDZ domain of human Dishevelled2) (Homo sapiens, UniProt O14641).
T1 construct: introducing a stop codon after C354 residue of Dvl2^PDZ to eliminate the fused peptide, cloned at the C-termini of PDZ; 6xHis (N, cleaved yes); host or cells: E. coli Rosetta (DE3)
T1 sequence (O14641 267-339 limits assumed): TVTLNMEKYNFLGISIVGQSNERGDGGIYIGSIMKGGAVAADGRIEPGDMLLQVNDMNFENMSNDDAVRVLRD
Kind of test: Microscale thermophoresis (MST) binding to Dvl2^PDZ. The conditions noted are these: Monolith NT.115, 50 nM Red-maleimide labelled Dvl2^PDZ, 10 mM Tris–HCl pH 8, 150 mM NaCl, 2 mM DTT, 5% glycerol, 0.05% Tween20, 30 min at 25 °C, peptides diluted 1:2 16 times from ~3.4 mM, hWGEF 138–0.0042 µM, Kd fit model, triplicates, read-out: Kd (dissociation constant) for Dvl2^PDZ. Here is the method:
MST experiments were performed using Monolith NT.115 instrument from Nanotemper technologies. Dvl2^PDZ domain was fluorescently labelled as per the instructions, using Monolith Redmaleimide 2nd generation-cysteine reactive label. The experimental condition consists of 10 mM Tris–HCl pH8, 150 mM NaCl, 2 mM DTT, 5% Glycerol and 0.05% Tween20. For Dvl2^PDZ-peptide affinity determination, synthetic WGEF peptides were serially diluted (1:2) 16 times, starting from an approximate concentration of 3.4 mM. 50 nM of fluorescently labelled Dvl2^PDZ domain was added to the serially diluted peptides, followed by incubation at 25 °C for 30 minutes. Thermophoresis signals were recorded at 20% of excitation power and 40% MST at 25 °C. Data was fitted using the Kd fit model in the MO. Affinity Analysis v2.3 software. Like peptides, hWGEF (330–581) protein was serially diluted to obtain a protein concentration range of 138–0.0042 µM. Experimental conditions were the same as mentioned above for peptides. […]
Guanine nucleotide exchange assays were performed in triplicates. Fluorescence decrease was fitted using a single exponential decay mode in GraphPad Prism. […] Statistical significance was calculated using ordinary One-way ANOVA with multiple comparisons. * Represents adjust P value with statistical significance of ****P < 0.0001, ***P < 0.001, **P < 0.01 and *P ≤ 0.01. […]
In general terms: Microscale thermophoresis detects binding through changes in fluorescence in a small temperature gradient.

B1: Dvl2^PDZ: recombinant PDZ domain of human Dishevelled2 (protein)
chain: MSLNIITVTLNMEKYNFLGISIVGQSNERGDGGIYIGSIMKGGAVAADGRIEPGDMLLQVNDMNFENMSNDDAVRVLRDIVHKPGPIVLTVAKC
modifications: Monolith Red-maleimide 2nd generation cysteine-reactive fluorescent label (in the MST experiments); left off: His6, N-terminal, cleaved
notes: recombinant PDZ domain of human Dishevelled2
Regarding B1, the entries for the “Change in GEF activity of xWGEF330” value in test [1] (25 µM Dvl2^PDZ) and in test [1] (50 µM Dvl2^PDZ (10-fold excess)) were “did not show any observable change” and “fourfold increase”, respectively.

B2: hWGEF: recombinant human WGEF construct, residues from 330 to 581 (protein)
chain: PPRANLSPSSSFRAQRSARGSTFSLWQDIPDVRGSGVLATLSLRDCKLQEAKFELITSEASYIHSLSVAVGHFLGSAELSECLGAQDKQWLFSKLPEVKSTSERFLQDLEQRLEADVLRFSVCDVVLDHCPAFRRVYLPYVTNQAYQERTYQRLLLENPRFPGILARLEESPVCQRLPLTSFLILPFQRITRLKMLVENILKRTAQGSEDEDMATKAFNALKELVQECNASVQSMKRTEELIHLSKKIHFEG
modifications: left off: GST, N-terminal, cleaved
The term Kd denotes a measure of binding affinity in units of concentration. B2: in test [2], the Kd was 7.9 ± 0.3 µM.
